Assays:
[1] = tested on: c-Abl (mouse); test: phosphorylation enrichment, bacterial display (enrichment ratio); higher = better substrate or ligand; peptides without Tyr show the background
[2] = target: FGFR3 (UniProt P22607); test: as above
[3] = target: MERTK (UniProt Q12866); test: as above
[4] = target: EPHB2 (UniProt P29323); test: as above
[5] = tested on: c-Src; test: as above
[6] = target: Jak2 (UniProt O60674); test: as above
[7] = target: Fes (UniProt P07332); test: as above
[8] = target: Hck (UniProt P08631); test: as above
[9] = target: FGFR1 (UniProt P11362); test: as above
[10] = target: EPHB1 (UniProt P54762); test: as above
[11] = target: Fyn (UniProt P06241); test: as above
[12] = tested on: Fer (mouse); test: as above
[13] = tested on: AncSZ; test: as above
[14] = target: SHP2-C SH2; test: SH2 binding enrichment of the phosphorylated peptide, bacterial display (enrichment ratio); higher = better substrate or ligand; peptides without Tyr show the background
[15] = target: Grb2 SH2 (UniProt P62993); test: as above
[16] = target: c-Src SH2; test: as above
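For SH2 binding enrichment of the phosphorylated peptide, bacterial display in this document: peptide library displayed on the E. coli surface as eCPX fusions, selected cells deep-sequenced, score is each peptide's frequency after selection divided by its frequency in the input.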
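For phosphorylation enrichment, bacterial display in this document: 11-residue human phosphosite peptides and single-mutation variants displayed on the E. coli surface, counted by deep sequencing, each peptide's frequency after selection divided by its frequency in the unselected input library; frequency after pTyr selection over input frequency; kinase dosed for 20-30% of maximal phosphorylation in three min.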

Sequence of Hck (P08631 whole entry, looked up): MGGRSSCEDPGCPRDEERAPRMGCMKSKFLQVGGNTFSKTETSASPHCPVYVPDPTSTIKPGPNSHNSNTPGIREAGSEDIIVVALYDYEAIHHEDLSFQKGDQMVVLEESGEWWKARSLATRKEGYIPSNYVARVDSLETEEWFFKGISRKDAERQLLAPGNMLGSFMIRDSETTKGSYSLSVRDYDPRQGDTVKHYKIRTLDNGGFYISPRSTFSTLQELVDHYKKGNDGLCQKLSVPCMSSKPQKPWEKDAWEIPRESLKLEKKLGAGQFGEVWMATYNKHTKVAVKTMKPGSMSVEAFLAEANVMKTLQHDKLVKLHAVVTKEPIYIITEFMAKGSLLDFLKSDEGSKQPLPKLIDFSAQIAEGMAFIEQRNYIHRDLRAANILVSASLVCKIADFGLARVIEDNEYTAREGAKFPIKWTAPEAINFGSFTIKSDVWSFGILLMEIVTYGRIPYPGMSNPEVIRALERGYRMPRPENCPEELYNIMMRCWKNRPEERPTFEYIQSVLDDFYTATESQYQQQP
Sequence of EPHB1 (P54762 whole entry, looked up): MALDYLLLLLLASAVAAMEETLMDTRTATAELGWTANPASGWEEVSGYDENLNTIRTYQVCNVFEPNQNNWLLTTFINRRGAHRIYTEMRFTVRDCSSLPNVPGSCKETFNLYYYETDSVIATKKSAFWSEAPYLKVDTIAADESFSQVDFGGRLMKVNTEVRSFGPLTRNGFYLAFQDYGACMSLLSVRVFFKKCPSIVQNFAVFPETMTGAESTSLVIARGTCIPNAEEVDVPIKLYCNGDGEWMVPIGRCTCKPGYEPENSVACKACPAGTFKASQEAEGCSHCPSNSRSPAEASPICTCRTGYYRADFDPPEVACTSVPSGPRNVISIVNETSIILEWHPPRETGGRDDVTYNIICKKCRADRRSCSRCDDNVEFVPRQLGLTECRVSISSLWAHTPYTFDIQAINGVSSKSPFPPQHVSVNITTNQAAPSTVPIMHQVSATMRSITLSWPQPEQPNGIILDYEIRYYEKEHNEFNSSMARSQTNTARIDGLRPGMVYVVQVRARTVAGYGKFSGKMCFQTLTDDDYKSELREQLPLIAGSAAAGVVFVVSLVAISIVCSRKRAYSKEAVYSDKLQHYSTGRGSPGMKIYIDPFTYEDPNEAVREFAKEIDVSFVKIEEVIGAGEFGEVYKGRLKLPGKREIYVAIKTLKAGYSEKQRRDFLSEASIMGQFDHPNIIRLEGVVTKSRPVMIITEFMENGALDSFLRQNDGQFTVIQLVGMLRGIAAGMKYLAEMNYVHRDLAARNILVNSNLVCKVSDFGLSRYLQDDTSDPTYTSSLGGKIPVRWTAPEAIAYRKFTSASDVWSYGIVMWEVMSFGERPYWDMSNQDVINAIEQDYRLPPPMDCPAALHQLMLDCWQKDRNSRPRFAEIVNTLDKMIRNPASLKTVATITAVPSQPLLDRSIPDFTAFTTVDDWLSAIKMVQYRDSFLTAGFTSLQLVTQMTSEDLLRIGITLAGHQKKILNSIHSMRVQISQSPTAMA
Sequence of EPHB2 (P29323 whole entry, looked up): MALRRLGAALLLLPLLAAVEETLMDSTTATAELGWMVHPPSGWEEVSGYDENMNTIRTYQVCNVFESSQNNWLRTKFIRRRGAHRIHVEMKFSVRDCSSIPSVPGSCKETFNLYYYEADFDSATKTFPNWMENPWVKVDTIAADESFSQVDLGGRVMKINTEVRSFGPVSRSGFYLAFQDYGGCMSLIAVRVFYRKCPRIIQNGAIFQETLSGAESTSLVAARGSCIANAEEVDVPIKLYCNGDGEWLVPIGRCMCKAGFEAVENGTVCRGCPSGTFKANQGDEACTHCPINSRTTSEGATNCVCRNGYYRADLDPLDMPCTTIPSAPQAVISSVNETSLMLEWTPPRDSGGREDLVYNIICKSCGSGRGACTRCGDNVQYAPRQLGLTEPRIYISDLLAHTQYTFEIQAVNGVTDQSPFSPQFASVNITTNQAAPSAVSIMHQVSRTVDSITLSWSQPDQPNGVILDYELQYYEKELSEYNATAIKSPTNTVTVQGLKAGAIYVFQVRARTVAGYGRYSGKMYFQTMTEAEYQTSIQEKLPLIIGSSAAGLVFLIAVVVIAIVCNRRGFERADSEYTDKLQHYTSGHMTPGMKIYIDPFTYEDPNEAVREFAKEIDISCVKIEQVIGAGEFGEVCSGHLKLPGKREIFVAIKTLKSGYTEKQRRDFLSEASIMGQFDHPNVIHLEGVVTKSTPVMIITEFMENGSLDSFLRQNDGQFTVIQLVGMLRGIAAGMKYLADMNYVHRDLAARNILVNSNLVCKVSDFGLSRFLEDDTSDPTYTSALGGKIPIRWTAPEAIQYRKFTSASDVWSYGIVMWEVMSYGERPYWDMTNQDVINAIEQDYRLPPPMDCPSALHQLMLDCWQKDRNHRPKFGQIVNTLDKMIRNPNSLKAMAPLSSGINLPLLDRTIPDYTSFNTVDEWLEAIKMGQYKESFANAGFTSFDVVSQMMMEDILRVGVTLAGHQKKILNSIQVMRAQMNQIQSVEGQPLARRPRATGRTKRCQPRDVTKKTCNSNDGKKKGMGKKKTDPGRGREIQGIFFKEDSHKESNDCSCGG
Sequence of Fyn (P06241 whole entry, looked up): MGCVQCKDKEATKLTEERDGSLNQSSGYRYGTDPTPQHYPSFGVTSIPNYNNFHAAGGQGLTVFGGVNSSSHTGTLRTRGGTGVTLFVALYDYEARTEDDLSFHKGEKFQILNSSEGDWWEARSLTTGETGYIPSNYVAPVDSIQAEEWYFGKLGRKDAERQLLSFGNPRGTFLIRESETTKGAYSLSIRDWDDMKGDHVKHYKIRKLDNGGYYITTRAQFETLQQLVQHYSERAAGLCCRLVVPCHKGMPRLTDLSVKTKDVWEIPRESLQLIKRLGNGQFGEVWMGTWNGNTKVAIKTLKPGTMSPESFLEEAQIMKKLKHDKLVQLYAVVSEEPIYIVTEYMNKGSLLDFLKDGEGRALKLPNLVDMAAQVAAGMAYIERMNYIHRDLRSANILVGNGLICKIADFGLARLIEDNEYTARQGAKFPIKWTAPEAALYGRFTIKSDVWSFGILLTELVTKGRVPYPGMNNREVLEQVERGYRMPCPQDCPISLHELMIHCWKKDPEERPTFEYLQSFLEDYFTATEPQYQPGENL
Sequence of FGFR1 (P11362 whole entry, looked up): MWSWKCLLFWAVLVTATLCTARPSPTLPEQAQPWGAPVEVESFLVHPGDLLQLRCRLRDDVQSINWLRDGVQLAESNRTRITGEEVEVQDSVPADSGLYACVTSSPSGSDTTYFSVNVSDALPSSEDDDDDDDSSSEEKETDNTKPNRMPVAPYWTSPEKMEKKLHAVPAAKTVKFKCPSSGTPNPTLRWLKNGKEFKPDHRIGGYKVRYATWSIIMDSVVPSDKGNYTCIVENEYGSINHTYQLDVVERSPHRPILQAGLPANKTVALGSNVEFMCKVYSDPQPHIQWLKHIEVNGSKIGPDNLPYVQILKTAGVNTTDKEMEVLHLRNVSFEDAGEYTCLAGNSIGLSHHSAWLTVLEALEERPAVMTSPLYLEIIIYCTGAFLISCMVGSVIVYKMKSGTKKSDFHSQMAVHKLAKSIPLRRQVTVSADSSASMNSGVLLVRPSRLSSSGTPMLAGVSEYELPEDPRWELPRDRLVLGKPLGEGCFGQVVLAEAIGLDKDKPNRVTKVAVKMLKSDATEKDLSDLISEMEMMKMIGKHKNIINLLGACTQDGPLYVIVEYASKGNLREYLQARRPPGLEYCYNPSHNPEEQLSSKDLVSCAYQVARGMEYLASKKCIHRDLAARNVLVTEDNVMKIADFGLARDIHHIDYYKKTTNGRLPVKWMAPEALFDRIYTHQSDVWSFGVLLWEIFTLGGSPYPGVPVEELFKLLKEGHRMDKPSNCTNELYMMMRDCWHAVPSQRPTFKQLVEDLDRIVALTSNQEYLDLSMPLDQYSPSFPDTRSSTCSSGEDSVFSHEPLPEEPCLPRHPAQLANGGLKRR
Sequence of Jak2 (O60674 whole entry, looked up): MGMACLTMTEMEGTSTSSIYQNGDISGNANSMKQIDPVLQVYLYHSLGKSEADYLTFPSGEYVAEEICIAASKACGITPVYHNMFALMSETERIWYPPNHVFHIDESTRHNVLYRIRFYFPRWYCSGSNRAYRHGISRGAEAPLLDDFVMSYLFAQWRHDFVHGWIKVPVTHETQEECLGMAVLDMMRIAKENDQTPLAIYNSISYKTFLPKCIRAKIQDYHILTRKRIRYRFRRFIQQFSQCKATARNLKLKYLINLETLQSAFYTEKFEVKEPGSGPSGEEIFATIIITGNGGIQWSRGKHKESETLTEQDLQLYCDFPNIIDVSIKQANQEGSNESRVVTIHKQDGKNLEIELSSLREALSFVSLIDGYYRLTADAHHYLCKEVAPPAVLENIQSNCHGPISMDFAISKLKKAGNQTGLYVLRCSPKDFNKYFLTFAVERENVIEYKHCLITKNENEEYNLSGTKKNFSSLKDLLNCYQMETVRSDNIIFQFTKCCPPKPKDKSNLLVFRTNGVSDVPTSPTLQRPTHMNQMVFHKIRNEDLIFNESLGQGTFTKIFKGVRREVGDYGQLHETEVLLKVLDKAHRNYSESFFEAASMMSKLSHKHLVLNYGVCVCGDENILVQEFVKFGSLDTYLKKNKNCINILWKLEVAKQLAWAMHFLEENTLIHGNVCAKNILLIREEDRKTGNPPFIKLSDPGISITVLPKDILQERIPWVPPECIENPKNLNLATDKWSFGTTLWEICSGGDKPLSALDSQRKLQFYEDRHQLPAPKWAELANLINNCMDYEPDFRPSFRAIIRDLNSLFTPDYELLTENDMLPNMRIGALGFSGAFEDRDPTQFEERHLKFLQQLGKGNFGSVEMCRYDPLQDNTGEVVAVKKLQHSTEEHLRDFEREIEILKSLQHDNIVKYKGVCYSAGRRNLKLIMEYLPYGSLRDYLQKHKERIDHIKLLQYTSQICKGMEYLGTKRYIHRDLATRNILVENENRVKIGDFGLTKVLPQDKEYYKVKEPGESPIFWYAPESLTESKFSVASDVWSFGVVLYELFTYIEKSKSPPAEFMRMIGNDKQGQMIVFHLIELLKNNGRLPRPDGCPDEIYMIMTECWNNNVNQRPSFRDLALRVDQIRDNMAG

SH2 binding enrichment [14] | SH2 binding enrichment [15] | SH2 binding enrichment [16] | Sequence | phosphorylation enrichment [1] | phosphorylation enrichment [2] | phosphorylation enrichment [3] | phosphorylation enrichment [4] | phosphorylation enrichment [5] | phosphorylation enrichment [6] | phosphorylation enrichment [7] | phosphorylation enrichment [8] | phosphorylation enrichment [9] | phosphorylation enrichment [10] | phosphorylation enrichment [11] | phosphorylation enrichment [12] | phosphorylation enrichment [13]
0.572 | 0.949 | 0.976 | PADRAYSWFQH [NDST1_Y711_YF] | 0.645 | 1.14 | 4.22 | 0.67 | 0.868 | 1.03 | 1.43 | 0.466 | 1.84 | 0.543 | 0.833 | 17.8 | 1.14
0.75 | 1.04 | 0.715 | ATARPYSPFII [LRP5_Y1528_R1529S_YF] | 0.467 | 0.618 | 0.552 | 0.474 | 0.633 | 0.508 | 0.735 | 0.594 | 0.409 | 0.403 | 0.504 | 9.77 | 0.627
0.733 | 0.773 | 0.393 | QPSPSYDSSRG [TCF12_Y70] | 0.521 | 0.557 | 0.414 | 0.626 | 0.482 | 0.455 | 0.661 | 0.553 | 0.561 | 0.534 | 0.623 | 0.457 | 0.68
1.12 | 1.2 | 0.843 | HSHTRYERNIE [F2_Y434_R431H] | 0.694 | 0.555 | 0.5 | 0.387 | 0.795 | 0.47 | 0.85 | 0.477 | 0.62 | 0.67 | 0.446 | 0.655 | 0.766
0.604 | 0.775 | 0.562 | QQLQGYVPSNY [FRK_Y99_I100V] | 0.64 | 0.733 | 0.396 | 0.36 | 0.413 | 0.822 | 0.874 | 0.537 | 0.458 | 0.552 | 0.486 | 0.45 | 0.554
0.809 | 0.811 | 0.412 | AHLTEYLSTHF [UQCRC1_Y219_D215H_YF] | 0.676 | 0.577 | 0.408 | 0.499 | 0.525 | 0.837 | 0.915 | 0.526 | 0.529 | 0.471 | 0.471 | 0.44 | 0.902
0.548 | 0.75 | 0.443 | CDDGKYVYVVT [RPS6KA3_Y488_Y483C] | 1.05 | 1.15 | 0.525 | 0.777 | 0.863 | 1.42 | 1.6 | 0.75 | 0.834 | 0.896 | 0.84 | 0.798 | 1.48
0.633 | 0.789 | 2.03 | NFAKMYCNPDA [KNL1_Y489_YF] | 0.836 | 0.636 | 0.536 | 0.706 | 0.538 | 0.766 | 1.02 | 0.572 | 0.569 | 0.502 | 0.569 | 0.517 | 0.942
0.559 | 0.914 | 0.491 | ADQLDYIKALN [HPRT1_Y81_L78Q] | 0.708 | 0.608 | 0.441 | 0.474 | 0.408 | 0.861 | 1.22 | 0.526 | 0.458 | 0.784 | 0.492 | 0.451 | 1.06
0.803 | 0.759 | 0.592 | AFQGKYTPSGQ [ALDOA_Y343_C339Y_YF] | 0.432 | 0.328 | 0.346 | 0.276 | 0.298 | 0.547 | 0.446 | 0.266 | 0.309 | 0.376 | 0.273 | 0.253 | 0.388
1.07 | 1.14 | 0.743 | FRTGHYLCNAC [GATA1_Y223_D218Y_YF] | 0.393 | 0.625 | 0.399 | 0.484 | 0.401 | 0.53 | 0.634 | 0.443 | 0.566 | 0.479 | 0.44 | 0.363 | 0.62
0.508 | 0.624 | 0.572 | LALTVYADCLA [ABCA4_Y2063_G2059A] | 1.09 | 1.05 | 0.517 | 0.938 | 0.62 | 1.53 | 1.48 | 0.73 | 0.665 | 1.08 | 0.699 | 0.781 | 1.42
0.637 | 0.996 | 0.586 | GVIRHSVVCST [BTK_Y334_Y334S] | 0.607 | 0.51 | 0.446 | 0.456 | 0.45 | 0.67 | 0.82 | 0.436 | 0.453 | 0.508 | 0.42 | 0.477 | 0.783
0.607 | 0.908 | 0.659 | PLQKTYNHNVL [SLC4A1_Y553_Y555H] | 0.833 | 0.524 | 0.744 | 0.591 | 0.686 | 0.892 | 0.946 | 0.291 | 0.479 | 0.576 | 0.531 | 0.659 | 0.657
0.829 | 0.653 | 0.417 | DEWFLYKMRDI [CPS1_Y879_K875E] | 0.935 | 0.878 | 0.4 | 0.585 | 0.816 | 1.63 | 1.56 | 0.615 | 0.503 | 0.751 | 0.486 | 0.586 | 1.25
0.816 | 0.968 | 4.34 | ALAAPYVLFPS [CEFIP_Y1332_G1337S_YF] | 0.682 | 1.83 | 2.01 | 0.502 | 5 | 1.63 | 0.822 | 0.647 | 2.56 | 0.76 | 0.578 | 0.504 | 0.675
0.587 | 0.901 | 0.439 | DESEDYRDTVV [CNNM3_Y456] | 0.897 | 1.13 | 0.633 | 0.931 | 0.662 | 1.4 | 1.59 | 0.765 | 0.677 | 0.975 | 0.623 | 0.78 | 1.46

SH2 binding enrichment [14] | SH2 binding enrichment [15] | SH2 binding enrichment [16] | Sequence | phosphorylation enrichment [1] | phosphorylation enrichment [2] | phosphorylation enrichment [3] | phosphorylation enrichment [4] | phosphorylation enrichment [5] | phosphorylation enrichment [6] | phosphorylation enrichment [7] | phosphorylation enrichment [8] | phosphorylation enrichment [9] | phosphorylation enrichment [10] | phosphorylation enrichment [11] | phosphorylation enrichment [12] | phosphorylation enrichment [13]
0.74 | 0.781 | 0.703 | EREYKYDAHNY [OAT_Y50_G51D] | 0.705 | 0.574 | 0.429 | 0.575 | 0.367 | 0.8 | 1 | 0.498 | 0.445 | 0.412 | 0.434 | 0.559 | 0.757
0.52 | 0.814 | 0.461 | CGTPDYIDPEI [PRKCG_Y521_A523D] | 0.813 | 1.85 | 0.454 | 0.725 | 0.481 | 1.31 | 1.41 | 0.7 | 2.28 | 1.1 | 0.581 | 0.531 | 1.58
0.673 | 0.869 | 0.541 | AIMSFYATLID [RYR1_Y2426_A2428T] | 1.07 | 1.09 | 0.59 | 0.836 | 0.486 | 1.83 | 1.51 | 0.585 | 0.601 | 1.05 | 0.508 | 0.791 | 1.31
6.41 | 0.784 | 1.85 | SLIDGYFRLTE [JAK2_Y372_A377E_YF] | 0.867 | 0.715 | 0.542 | 0.436 | 0.446 | 4.29 | 1.08 | 0.442 | 0.553 | 0.571 | 0.456 | 0.545 | 1.07
0.65 | 0.7 | 0.546 | LARHMYDKEFF [MET_Y1230_D1228H_YF] | 0.524 | 0.55 | 0.559 | 0.438 | 0.688 | 0.646 | 1.08 | 0.399 | 0.606 | 0.355 | 0.404 | 0.29 | 0.78
0.968 | 1.11 | 0.508 | LARDMDDKEFF [MET_Y1230_Y1230D_YF] | 0.464 | 1.08 | 0.523 | 0.53 | 0.498 | 0.708 | 0.997 | 0.456 | 0.453 | 0.451 | 0.342 | 0.428 | 0.895
0.701 | 0.979 | 0.728 | SGADSYEMEED [EGFR_Y316_C311S] | 0.749 | 0.871 | 0.722 | 0.585 | 0.561 | 1.12 | 1.16 | 0.668 | 0.822 | 0.574 | 0.625 | 0.52 | 1.29
1.04 | 1.4 | 0.988 | QGLRLYRPHLA [BTK_Y617] | 0.775 | 0.76 | 0.382 | 0.697 | 0.438 | 1.15 | 1.12 | 0.437 | 0.501 | 0.515 | 0.461 | 0.542 | 1.16
0.85 | 2 | 2.24 | LCRYGYANTSE [SI_Y1233] | 0.932 | 1.36 | 1.15 | 0.661 | 0.789 | 1.11 | 1.41 | 0.772 | 0.656 | 0.78 | 0.688 | 0.746 | 1.31
0.944 | 0.667 | 0.471 | IGEGTYGQVYK [CDK13_Y716] | 0.593 | 0.508 | 0.714 | 1.59 | 9.38 | 0.822 | 0.822 | 11.8 | 0.553 | 0.889 | 13.5 | 0.813 | 0.605
0.706 | 0.766 | 0.533 | DRIVNYSRASV [ATP7A_Y1459_I1464V] | 0.563 | 0.535 | 0.574 | 0.438 | 0.468 | 0.732 | 0.79 | 0.45 | 0.467 | 0.482 | 0.423 | 0.449 | 0.702
1.27 | 1.29 | 0.795 | LSSNLYYRWLT [CNGA3_Y168_P163L] | 12.6 | 17.8 | 20.4 | 8.33 | 6.55 | 13.4 | 3.38 | 15.2 | 21.5 | 7.53 | 6.81 | 8.47 | 6.06
0.781 | 0.729 | 0.502 | ILLAGYLVMVI [SLC28A3_Y113] | 0.748 | 0.783 | 0.498 | 0.652 | 0.442 | 1.06 | 1.38 | 0.525 | 0.58 | 0.681 | 0.572 | 0.613 | 1.35
0.456 | 0.725 | 0.56 | DNEALYDTCFR [TUBB2B_Y208_I210T] | 2.25 | 0.888 | 6.63 | 2.71 | 5.2 | 1.23 | 1.49 | 6.09 | 0.61 | 2.85 | 6.81 | 8.38 | 2.34
0.906 | 0.83 | 0.596 | GCVSKYSGVFS [TUBGCP6_Y1624] | 0.619 | 0.51 | 0.514 | 0.458 | 0.463 | 0.81 | 0.964 | 0.411 | 0.321 | 0.433 | 0.357 | 0.403 | 0.815
0.564 | 1.11 | 0.695 | EPYELYCEMGS [CBL_Y371_Q367P] | 2.36 | 3.14 | 3.54 | 6.42 | 4.82 | 1.61 | 1.74 | 4.22 | 3.54 | 5.73 | 4.13 | 3.52 | 3.71

Reference: the supplement of paper PMC10065799, “High-throughput profiling of sequence recognition by tyrosine kinases and SH2 domains using bacterial peptide display” (eLife, 2023)
